Measurements reported in IntAct's records for PubMed 32852592.

B1: Mitogen-activated protein kinase 13 (Homo sapiens), O15264 (parent)
chain: MSLIRKKGFYKQDVNKTAWELPKTYVSPTHVGSGAYGSVCSAIDKRSGEKVAIKKLSRPFQSEIFAKRAYRELLLLKHMQHENVIGLLDVFTPASSLRNFYDFYLVMPFMQTDLQKIMGMEFSEEKIQYLVYQMLKGLKYIHSAGVVHRDLKPGNLAVNEDCELKILDFGLARHADAEMTGYVVTRWYRAPEVILSWMHYNQTVDIWSVGCIMAEMLTGKTLFKGKDYLDQLTQILKVTGVPGTEFVQKLNDKAAKSYIQSLPQTPRKDFTQLFPRASPQAADLLEKMLELDVDKRLTAAQALTHPFFEPFRDPEEETEAQQPFDDSLEHEKLTVDEWKQHIYKEIVNFSPIARKDSRRRSGMKL

Variants of: B1
Conditions: with stat3_human STAT3, P40763
Chain of stat3_human STAT3, P40763 (P40763 whole entry): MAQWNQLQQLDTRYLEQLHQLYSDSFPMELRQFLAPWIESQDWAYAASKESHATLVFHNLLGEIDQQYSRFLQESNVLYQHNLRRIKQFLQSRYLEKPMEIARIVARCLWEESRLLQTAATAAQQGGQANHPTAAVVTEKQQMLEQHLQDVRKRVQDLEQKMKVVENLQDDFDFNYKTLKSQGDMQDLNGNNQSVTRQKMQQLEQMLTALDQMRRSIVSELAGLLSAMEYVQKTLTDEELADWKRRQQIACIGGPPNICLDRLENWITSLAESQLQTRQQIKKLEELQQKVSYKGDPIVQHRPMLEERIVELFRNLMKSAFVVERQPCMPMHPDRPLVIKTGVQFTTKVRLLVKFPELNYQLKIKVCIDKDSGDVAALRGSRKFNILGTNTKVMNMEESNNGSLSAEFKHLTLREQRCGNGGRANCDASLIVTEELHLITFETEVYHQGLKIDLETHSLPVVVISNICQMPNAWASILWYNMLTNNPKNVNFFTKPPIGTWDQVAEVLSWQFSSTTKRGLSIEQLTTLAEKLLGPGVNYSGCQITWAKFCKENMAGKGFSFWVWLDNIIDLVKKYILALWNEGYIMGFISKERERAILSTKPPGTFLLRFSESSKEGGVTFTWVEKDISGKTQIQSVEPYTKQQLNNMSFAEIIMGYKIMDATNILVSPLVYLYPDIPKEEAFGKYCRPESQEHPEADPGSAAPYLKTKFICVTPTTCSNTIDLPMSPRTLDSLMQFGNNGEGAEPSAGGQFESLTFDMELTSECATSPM

| effect of a mutation on the interaction | Variant |
| --- | --- |
| with no effect | T180A;Y182A |
